Test results: publication PMC6264593 (2018)

Columns and labels:
[1] = biological target: Aβ protofibrils (Homo sapiens, UniProt P05067); assay: SPR
[2] = biological target: Aβ monomer (Homo sapiens, UniProt P05067); assay: SPR

Kd [1]: 0.0008 µM
Kd [2]: 34 µM
B1: Gantenerumab (antibody, V domains shown)
VH: QVELVESGGGLVQPGGSLRLSCAASGFTFSSYAMSWVRQAPGKGLEWVSAINASGTRTYYADSVKGRFTISRDNSKNTLYLQMNSLRAEDTAVYYCARGKGNTHKPYGYVRYFDVWGQGTLVTVSS
VL: DIVLTQSPATLSLSPGERATLSCRASQSVSSSYLAWYQQKPGQAPRLLIYGASSRATGVPARFSGSGSGTDFTLTISSLEPEDFATYYCLQIYNMPITFGQGTKVEIK
